Laboratory results taken from patent US20210163581A1 (ALAMAB THERAPEUTICS, published 2021).
One block for each binder: values may come before it.

Columns and labels:
[1] = target: T1, Cx43 (peptide used in the Biacore affinity assay of Example 1); assay: SPR Biacore T200, antibody and Cx43 peptide; format and peptide not given
T1 construct: also called connexin 43; PEP1 (914)

[2] = target: T2, CD64 (UniProt P12314 16-288); assay: SPR Biacore 8K, CD64 captured by anti-His antibody, antibody as analyte, 1:1 binding fit
T2 construct: also called FCRI
Procedure: 2 μg/mL CD64 in running buffer (1×HBS-EP+) was injected to Fc2 of channel 1-4 at a flow rate of 10 μL/min for 30 s. 6 concentrations (40, 20, 10, 5, 2.5 and 1.25 nM) of analyte 20170905-Ab #C-02, 20170905-Ab #D-02, 20170908-Ab #G-02, 20170920-Ab #H-02 and running buffer were injected orderly to Fc1-Fc2 of channel 1-4 at a flow rate of 30 μL/min for an association phase of 180, followed by 400 dissociation. Repeat 6 cycles of capturing ligand and running analyte according to analyte concentrations in ascending order. 10 mM glycine pH 1.5 as regeneration buffer was injected following every dissociation phase.
(§1) Surface channels Fc1 without capturing ligand was used as control surface for reference subtraction. Final data of each interaction w as deducted from reference channel and buffer channel data. The experimental data of 20170905-Ab #C-02, 20170905-Ab #D-02, 20170908-Ab #G-02, 20170920-Ab #H-02 binding to CD64 was fitted by 1:1 binding mode. The 10240 nM curves of analyte 20170907-Ab #K-02, 20170908-Ab #L-02, 20170915-Ab #O-02, 20170919-Ab #P-02, 20170919-Ab #S-02 and 20170920-Ab #T-02 were removed to allow a better fit.

[3] = target: T3, C1q (UniProt P02745 23-245; P02746 28-253; P02747 29-245); assay: ELISA, antibody coated at 3 µg/mL, C1q titrated
T3 construct: also called Clq
Procedure: (§2) Plates (Nunc) were coated with antibodies at 3 μg/mL overnight at 4° C. After blocking and washing, Clq was half-log titrated in blocking buffer (600, 189.75, 60.01, 18.98, 6.00, 1.90, 0.60, 0.19, 0.06 and 0.02 μg/mL) and incubated at room temperature for 2 h. The plates were then washed and subsequently incubated with secondary antibody Sheep anti-human Clq Ab-HRP for 1 h. After washing, TMB substrate was added and the interaction was stopped by 2M HCl.

[4] = target: T4, human FcRn (human, UniProt P55899 24-297; P61769 21-119); assay: SPR Biacore 8K, antibody amine-coupled to CM5, FcRn as analyte, pH 6.0, steady state affinity fit
T4 construct: The b2m chain is my addition
Procedure: The activator was prepared by mixing 400 mM EDC and 100 mM NHS (GE) immediately prior to injection. The CM5 sensor chip was activated for 420 s with the mixture at a flow rate of 10 μL/min. 5 μg/mL of antibodies in 10 mM NaAc (pH 5.5) were then injected to Fc2 of channel 1-8 respectively at a flow rate of 10 μL/min for 60 s. The relative Fc1 was blocked. The chip w as deactivated by 1 M ethanolamine-HCl (GE) at a flow rate of 10 μL/min for 420 s.
Analyte FcRn was injected to channel 1-8 respectively. 8 concentrations of FcRn (0, 93.75, 187.5, 375, 750, 1500, 3000 and 6000 nM) were monitored at a flow rate of 30 μL/min for an association phase of 60 s, followed by 90 s dissociation. After each cycle of interaction analysis, the sensor chip surface was regenerated with 1×PBS (pH 7.4) at a flow rate of 10 μL/min for 30 s.
Surface channels Fc1 without immobilized antibodies were used as control surface for reference subtraction. Final data of each interaction was deducted from reference channel and buffer channel data.

[5] = target: T5, FcγRIIa (UniProt P12318 36-218, limits assumed); assay: SPR Biacore 8K, receptor captured by anti-His antibody, antibody as analyte, steady state affinity fit; unit inferred
T5 construct: also called FCRIIa
T5 sequence (looked up): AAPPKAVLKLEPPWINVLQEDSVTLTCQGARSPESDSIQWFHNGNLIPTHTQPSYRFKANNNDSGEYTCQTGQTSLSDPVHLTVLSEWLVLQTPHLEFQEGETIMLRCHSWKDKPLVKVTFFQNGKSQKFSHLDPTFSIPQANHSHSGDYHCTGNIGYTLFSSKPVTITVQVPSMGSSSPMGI
Procedure: 1 μg/mL FcγRIIa, FcγRIIb, FcγRIIIa, or FcγRIIIb in running buffer (1×HBS-EP+) was injected to Fc2 of channel 1-8 at a flow rate of 10 μL/min for 15 s. Analytes were injected to channel 1-8 respectively. A series of analyte concentrations (seeing Table 3 below) were monitored at a flow rate of 30 μL/min for an association phase of 60 s, followed by 90 s dissociation. 10 mM glycine pH 1.5 as regeneration buffer was injected following every dissociation phase.
Surface channels Fc1 without capturing ligand was used as control surface for reference subtraction. Final data of each interaction was deducted from reference channel and buffer channel data. The experimental data of antibodies binding to FcγRIIa, FcγRIIb, FcγRIIIa, and FcγRIIIb was fitted by steady state affinity mode and shown in Table 4 below.

[6] = target: T3, C1q; assay: ELISA, antibody coated at 3 µg/mL, C1q titrated, anti-human C1q-HRP detection
Procedure: as §2

[7] = target: T2, CD64; assay: SPR Biacore 8K, CD64 captured by anti-His antibody, antibody as analyte, steady state affinity fit; steady state affinity fit; no ka/kd
Procedure: (§3) 2 μg/mL CD64 in running buffer (1×HBS-EP+) was injected to Fc2 of channel 1-6 at a flow rate of 10 μL/min for 30 s. […] Repeat 8 cycles of capturing ligand and running analyte according to analyte concentrations in ascending order. 10 mM glycine pH 1.5 as regeneration buffer was injected following every dissociation phase.
as §1

[8] = target: T2, CD64; assay: SPR Biacore 8K, CD64 captured by anti-His antibody, antibody as analyte, steady state affinity fit
Procedure: as §3, §1

T2 sequence (P12314 16-288 limits assumed): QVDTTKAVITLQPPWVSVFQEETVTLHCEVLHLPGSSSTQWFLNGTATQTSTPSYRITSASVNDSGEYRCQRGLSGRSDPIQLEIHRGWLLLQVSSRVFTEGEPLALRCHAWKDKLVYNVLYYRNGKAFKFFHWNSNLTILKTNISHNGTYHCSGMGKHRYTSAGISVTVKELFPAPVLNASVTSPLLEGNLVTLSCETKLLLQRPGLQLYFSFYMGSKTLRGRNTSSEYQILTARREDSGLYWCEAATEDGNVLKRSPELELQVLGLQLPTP
T3 sequence (P02745 23-245, chain 1 of 3): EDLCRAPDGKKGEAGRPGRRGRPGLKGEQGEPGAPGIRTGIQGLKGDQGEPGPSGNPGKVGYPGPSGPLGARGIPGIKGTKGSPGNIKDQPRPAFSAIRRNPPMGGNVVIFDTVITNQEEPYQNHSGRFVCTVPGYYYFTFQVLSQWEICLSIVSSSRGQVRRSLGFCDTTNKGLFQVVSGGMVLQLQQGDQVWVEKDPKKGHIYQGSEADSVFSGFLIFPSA
T3 sequence (P02746 28-253, chain 2 of 3): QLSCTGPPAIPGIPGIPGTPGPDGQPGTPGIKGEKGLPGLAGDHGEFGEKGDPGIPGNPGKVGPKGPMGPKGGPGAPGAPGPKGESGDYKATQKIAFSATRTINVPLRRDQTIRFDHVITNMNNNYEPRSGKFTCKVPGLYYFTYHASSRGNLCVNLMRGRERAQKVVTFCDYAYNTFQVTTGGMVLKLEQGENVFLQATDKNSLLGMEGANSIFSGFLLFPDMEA
T3 sequence (P02747 29-245, chain 3 of 3): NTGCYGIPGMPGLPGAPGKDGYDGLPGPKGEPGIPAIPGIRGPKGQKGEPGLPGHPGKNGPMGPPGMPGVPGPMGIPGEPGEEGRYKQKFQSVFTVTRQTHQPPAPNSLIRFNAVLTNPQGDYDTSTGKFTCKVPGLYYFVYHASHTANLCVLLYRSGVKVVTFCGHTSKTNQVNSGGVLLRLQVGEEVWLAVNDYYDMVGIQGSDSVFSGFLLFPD

Kd [1]: 0.0465 µM
Kd [2]: 0.00573 µM
koff [2]: 0.00318 s⁻¹
kon [2]: 554000 M⁻¹ s⁻¹
binding result [3]: no binding
Kd [4]: 2.61 µM
B1: Ab#H (antibody, human IgG4 S228P, kappa)
heavy: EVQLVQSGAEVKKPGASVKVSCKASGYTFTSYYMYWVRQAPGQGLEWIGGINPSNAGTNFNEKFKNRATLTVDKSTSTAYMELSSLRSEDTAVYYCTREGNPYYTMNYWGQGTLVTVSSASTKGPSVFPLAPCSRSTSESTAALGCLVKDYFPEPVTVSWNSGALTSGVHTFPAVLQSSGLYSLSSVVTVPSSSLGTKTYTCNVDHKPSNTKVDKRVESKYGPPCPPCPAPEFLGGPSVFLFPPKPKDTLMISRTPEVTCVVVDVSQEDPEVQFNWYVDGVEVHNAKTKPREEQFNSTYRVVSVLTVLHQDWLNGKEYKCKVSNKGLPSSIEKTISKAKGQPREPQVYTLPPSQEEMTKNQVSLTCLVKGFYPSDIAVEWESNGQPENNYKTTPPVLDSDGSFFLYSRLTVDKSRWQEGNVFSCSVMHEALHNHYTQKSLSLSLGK
light: DVVMTQSPLSLPVTIGQPASISCKSSQSLLESDGKTYLNWLQQRPGQSPRRLIYLVSKLDSGVPDRFSGSGSGTDFTLKISRVEAEDVGVYYCWQGTHFPWTFGGGTKVEIKRTVAAPSVFIFPPSDEQLKSGTASVVCLLNNFYPREAKVQWKVDNALQSGNSQESVTEQDSKDSTYSLSSTLTLSKADYEKHKVYACEVTHQGLSSPVTKSFNRGEC
notes: also called 20170920-Ab #H-02; Mab H

Kd [1]: 0.199 µM
Kd [5]: 3.39 µM
Kd [2]: 0.00192 µM
koff [2]: 0.000925 s⁻¹
kon [2]: 482000 M⁻¹ s⁻¹
Kd [6]: 0.075 µM
Kd [4]: 2.25 µM
B2: Ab#D (antibody, human IgG1, kappa)
heavy: not shown
light: B1 light
notes: Light chain tie is indirect; also called 20170905-Ab #D-02

Kd [1]: 0.0101 µM
Kd [4]: 2.6 µM
Kd [7]: 1.62 µM
B3: Ab#L (antibody, human IgG1, kappa, L234A L235A)
heavy: not shown
light: B1 light
notes: also called 20170908-Ab #L-02

Kd [1]: 0.000582 µM
binding result [3]: no binding
Kd [8]: 3.05 µM
Kd [4]: 2.56 µM
B4: Ab#T (antibody, human IgG4 S228P, kappa, F234A L235A)
heavy: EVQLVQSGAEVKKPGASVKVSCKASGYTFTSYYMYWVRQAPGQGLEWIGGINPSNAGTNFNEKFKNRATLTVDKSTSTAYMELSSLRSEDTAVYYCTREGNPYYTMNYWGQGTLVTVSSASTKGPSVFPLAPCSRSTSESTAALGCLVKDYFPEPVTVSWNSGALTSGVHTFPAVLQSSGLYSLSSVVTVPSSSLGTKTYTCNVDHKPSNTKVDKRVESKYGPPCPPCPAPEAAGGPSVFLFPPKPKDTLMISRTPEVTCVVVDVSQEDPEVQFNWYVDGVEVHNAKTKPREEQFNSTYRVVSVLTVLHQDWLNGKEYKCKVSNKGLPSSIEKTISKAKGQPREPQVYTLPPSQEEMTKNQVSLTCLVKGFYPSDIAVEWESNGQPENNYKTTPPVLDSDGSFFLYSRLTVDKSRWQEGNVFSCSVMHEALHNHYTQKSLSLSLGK
light: B1 light
notes: also called 20170920-Ab #T-02

Kd [1]: 0.00858 µM
binding result [3]: no binding
Kd [8]: 2.79 µM
Kd [4]: 2.55 µM
B5: Ab#P (antibody, human IgG4 S228P, kappa)
heavy: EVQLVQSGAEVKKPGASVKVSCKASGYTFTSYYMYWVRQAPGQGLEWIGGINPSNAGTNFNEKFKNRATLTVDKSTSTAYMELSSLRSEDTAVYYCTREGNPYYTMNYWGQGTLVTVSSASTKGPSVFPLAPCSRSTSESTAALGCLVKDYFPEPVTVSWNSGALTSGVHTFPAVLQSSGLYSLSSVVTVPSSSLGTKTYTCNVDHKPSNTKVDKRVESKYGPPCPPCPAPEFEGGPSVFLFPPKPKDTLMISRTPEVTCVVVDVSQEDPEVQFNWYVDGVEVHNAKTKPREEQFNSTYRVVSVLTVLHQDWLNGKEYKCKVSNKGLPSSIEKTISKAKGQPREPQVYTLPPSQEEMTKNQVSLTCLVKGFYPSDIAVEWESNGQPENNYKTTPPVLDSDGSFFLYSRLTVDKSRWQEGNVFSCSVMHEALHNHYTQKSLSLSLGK
light: B1 light
